Assay results published in the supplement of paper PMC10567573.

B1: KRT33B (parent)
chain: PAVDLNQVLNETRNQYEALVETNR

Variants of: B1
Test: protein stability index of a GFP-peptide fusion (GPS, HEK-293T) (PSI 1-6); higher = more stable
Conditions: c terminus: a fixed tail appended
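Also: lentivirally expressed fusions sorted by FACS into six bins by GFP to DsRed ratio, PSI derived from sequencing read proportions per bin multiplied by bin number.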

Variant | protein stability index
PAVDLNQVLNETRNQYEAPVETNR [L19P] | 4.97
PAVDLNQVLNETRNQYEAAVETNR [L19A] | 5.03
PAVDLNQVLNETRNQYEAEVETNR [L19E] | 5.19
PAVDLNQVLNETRNQYEAQVETNR [L19Q] | 5.1
PAVDLNQVLNETRNQYEASVETNR [L19S] | 5.03
PAVDLNQVLNETRNQYEAVVETNR [L19V] | 4.85
PAVDLNQVLNETRNQYEADVETNR [L19D] | 5.42
PAVDLNQVLNETRNQYEAIVETNR [L19I] | 4.11
PAVDLNQVLNETRNQYEACVETNR [L19C] | 4.53
PAVDLNQVLNETRNQYEAYVETNR [L19Y] | 4.61
PAVDLNQVLNETRNQYEAKVETNR [L19K] | 4.95
PAVDLNQVLNETRNQYEARVETNR [L19R] | 4.29
PAVDLNQVLNETRNQYEANVETNR [L19N] | 4.87
PAVDLNQVLNETRNQYEAFVETNR [L19F] | 4.11
PAVDLNQVLNETRNQYEAHVETNR [L19H] | 4.57
PAVDLNQVLNETRNQYEAMVETNR [L19M] | 3.89
PAVDLNQVLNETRNQYEATVETNR [L19T] | 4.7
PAVDLNQVLNETRNQYEAWVETNR [L19W] | 4.25
PAVDLNQVLNETRNQYEAGVETNR [L19G] | 4.91
PAVDLNQVLNETRNQYLALVETNR [E17L] | 3.73
PAVDLNQVLNETRNQYRALVETNR [E17R] | 3.96
PAVDLNQVLNETRNQYMALVETNR [E17M] | 3.55
PAVDLNQVLNETRNQYAALVETNR [E17A] | 3.65
PAVDLNQVLNETRNQYFALVETNR [E17F] | 2.9

Variant | protein stability index
PAVDLNQVLNETRNQYDALVETNR [E17D] | 4.23
PAVDLNQVLNETRNQYCALVETNR [E17C] | 3.65
PAVDLNQVLNETRNQYGALVETNR [E17G] | 3.91
PAVDLNQVLNETRNQYYALVETNR [E17Y] | 3.09
PAVDLNQVLNETRNQYVALVETNR [E17V] | 3.71
PAVDLNQVLNETRNQYWALVETNR [E17W] | 3.54
PAVDLNQVLNETRNQYPALVETNR [E17P] | 4.39
PAVDLNQVLNETRNQYIALVETNR [E17I] | 3.13
PAVDLNQVLNETRNQYKALVETNR [E17K] | 3.48
PAVDLNQVLNETRNQYQALVETNR [E17Q] | 4.4
PAVDLNQVLNETRNQYNALVETNR [E17N] | 3.61
PAVDLNQVLNETRNQYSALVETNR [E17S] | 4.24
PAVDLNQVLNETRNQYTALVETNR [E17T] | 3.62
PAVDLNQVLNETRNQYHALVETNR [E17H] | 3.9
PAVDLNQVLNETRNQYEYLVETNR [A18Y] | 3.96
PAVDLNQVLNETRNQYEHLVETNR [A18H] | 4.09
PAVDLNQVLNETRNQYEPLVETNR [A18P] | 4.28
PAVDLNQVLNETRNQYEVLVETNR [A18V] | 4.06
PAVDLNQVLNETRNQYEILVETNR [A18I] | 3.55
PAVDLNQVLNETRNQYECLVETNR [A18C] | 3.83
PAVDLNQVLNETRNQYELLVETNR [A18L] | 3.59
PAVDLNQVLNETRNQYESLVETNR [A18S] | 3.71
PAVDLNQVLNETRNQYEGLVETNR [A18G] | 4.48
PAVDLNQVLNETRNQYEFLVETNR [A18F] | 3.48

Variant | protein stability index
PAVDLNQVLNETRNQYEMLVETNR [A18M] | 3.55
PAVDLNQVLNETRNQYENLVETNR [A18N] | 3.89
PAVDLNQVLNETRNQYERLVETNR [A18R] | 2.53
PAVDLNQVLNETRNQYEKLVETNR [A18K] | 2.69
PAVDLNQVLNETRNQYEQLVETNR [A18Q] | 2.96
PAVDLNQVLNETRNQYEELVETNR [A18E] | 3.58
PAVDLNQVLNETRNQYEWLVETNR [A18W] | 3.72
PAVDLNQVLNETRNQYETLVETNR [A18T] | 3.67
PAVDLNQVLNETRNQYEDLVETNR [A18D] | 4.43
PAVDLNQVLNMTRNQYEALVETNR [E11M] | 3.31
PAVDLNQVLNWTRNQYEALVETNR [E11W] | 3.38
PAVDLNQVLNYTRNQYEALVETNR [E11Y] | 3.85
PAVDLNQVLNLTRNQYEALVETNR [E11L] | 3.81
PAVDLNQVLNKTRNQYEALVETNR [E11K] | 3.85
PAVDLNQVLNFTRNQYEALVETNR [E11F] | 3.84
PAVDLNQVLNITRNQYEALVETNR [E11I] | 3.97
PAVDLNQVLNNTRNQYEALVETNR [E11N] | 3.94
PAVDLNQVLNPTRNQYEALVETNR [E11P] | 4.27
PAVDLNQVLNHTRNQYEALVETNR [E11H] | 4.13
PAVDLNQVLNQTRNQYEALVETNR [E11Q] | 4.29
PAVDLNQVLNTTRNQYEALVETNR [E11T] | 4.1
PAVDLNQVLNRTRNQYEALVETNR [E11R] | 4.02
PAVDLNQVLNCTRNQYEALVETNR [E11C] | 4.3
PAVDLNQVLNATRNQYEALVETNR [E11A] | 3.63

Variant | protein stability index
PAVDLNQVLNGTRNQYEALVETNR [E11G] | 3.85
PAVDLNQVLNDTRNQYEALVETNR [E11D] | 3.77
PAVDLNQVLNSTRNQYEALVETNR [E11S] | 3.62
PAVDLNQVLNVTRNQYEALVETNR [E11V] | 3.88
PAVDLNQVLNETRCQYEALVETNR [N14C] | 2.82
PAVDLNQVLNETRGQYEALVETNR [N14G] | 3.32
PAVDLNQVLNETRPQYEALVETNR [N14P] | 4.43
PAVDLNQVLNETRAQYEALVETNR [N14A] | 2.25
PAVDLNQVLNETRWQYEALVETNR [N14W] | 2.55
PAVDLNQVLNETRIQYEALVETNR [N14I] | 2.02
PAVDLNQVLNETRQQYEALVETNR [N14Q] | 2.57
PAVDLNQVLNETRVQYEALVETNR [N14V] | 3.3
PAVDLNQVLNETRMQYEALVETNR [N14M] | 2.05
PAVDLNQVLNETRLQYEALVETNR [N14L] | 2.07
PAVDLNQVLNETRTQYEALVETNR [N14T] | 3.21
PAVDLNQVLNETRDQYEALVETNR [N14D] | 3.59
PAVDLNQVLNETRKQYEALVETNR [N14K] | 2.63
PAVDLNQVLNETRRQYEALVETNR [N14R] | 2.81
PAVDLNQVLNETRYQYEALVETNR [N14Y] | 3.42
PAVDLNQVLNETRFQYEALVETNR [N14F] | 3.54
PAVDLNQVLNETRSQYEALVETNR [N14S] | 3.04
PAVDLNQVLNETREQYEALVETNR [N14E] | 2.68
